Assay results as given in patent US20230296611A1 (INNATE PHARMA, published 2023).
Numbering of substitutions follows the chain as printed.

Assays:
human MICA*008 = biological target: T1, human MICA*008 (human, UniProt Q29983 24-297); assay: IHC with hybridoma supernatant on FFPE C1R MICA*008 cell pellet, Ventana, CC1 or CC2
T1 construct: C1R-neo cells transfected with human MICA*008, formalin fixed and paraffin embedded (or live cells for flow cytometry); transmembrane and cytoplasmic parts are not in the entry; also called C1R MICA*008 cells
T1 chain: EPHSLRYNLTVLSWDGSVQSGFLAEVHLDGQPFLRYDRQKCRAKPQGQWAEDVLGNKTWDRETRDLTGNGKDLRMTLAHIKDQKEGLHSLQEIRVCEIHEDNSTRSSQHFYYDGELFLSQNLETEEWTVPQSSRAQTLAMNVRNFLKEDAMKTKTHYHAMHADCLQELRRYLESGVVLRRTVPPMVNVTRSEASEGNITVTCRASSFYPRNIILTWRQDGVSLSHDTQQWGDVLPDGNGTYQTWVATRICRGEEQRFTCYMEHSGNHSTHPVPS
Procedure: (§1) In parallel to the phenotyping by flow cytometry, the cell lines were fixed in formalin and embedded in paraffin. Briefly, 20×10⁶ to 40×10⁶ cells were fixed for 1 hour with formalin 4%. The cells were washed twice in PBS, and there were resuspended in Histogel. The cell pellets were dehydrated and embedded in paraffin. For each cell line, several FFPE cell pellets were made A mix of cells (C1R MICA*008 (15.10⁶ cells) and C1R MICB (15.10⁶ cells)) was also were embedded in paraffin. Sectioning of FFPE cell pellets was performed and MICA/B staining done by IHC. Briefly, 5 μm-thick sections were incubated dewaxed, submitted to an antigen retrieval step and incubated with immune or non-immune sera, hybridoma supernatants, chain combinations Abs or purified and commercial Abs followed by a signal amplification step. Enzymatic revelation was finally performed using 3, 3′-diaminobenzidine (DAB). For the IHC stainings with the mouse sera, staining interpretation was done by attributing a percentage of stained cells in the pellet section as well as an intensity score using the following criterion: “−”: negative staining; “+”: weak positive staining; “++”: intermediate IHC signal in intensity and “+++”: strong positive staining. […]

human MICA*001 = biological target: T2, human MICA*001 (human, UniProt Q29983 24-297); assay: IHC with hybridoma supernatant on FFPE C1R MICA*001 cell pellet, Ventana, CC1 or CC2
T2 construct: C1R-neo cells transfected with human MICA*001, formalin fixed and paraffin embedded (or live cells for flow cytometry); also called C1R MICA*001 cells
T2 sequence: T1 chain with A24T, Y36C, E125K, V129M, E173K, S206G, R210W, I213T, T215S, R251Q
Procedure: as §1

B1: antibody 12C9 (antibody, V domains shown)
VH: EIQLQQSGPELEKPGASVKISCKASGYAFTGYYMNWMKQRNGKSLDWIGTINPYYGSSTYNQKFKGKATLTVDESSSTAYMQLTSLTSEDSAVYYCARVDGDHGYFDYWGRGTTLTVSS
VL: DVVMTQTPLSLPVSLGDQASISCRSSQSLVHSNGNTYLHWYLQKPGQSPKLLIYKVSTRFSGVPDRFSGSGSGTDFTLKISRVEAEDLGVYFCSQSTHVPFTFGSGTKLEIK
notes: Produced as a mouse antibody with mouse gamma1 chain (mIgG1 isotype)
Does B1 bind (human MICA*008)?
Result: binds

Does B1 bind (human MICA*001)?
Result: binds
